Among the targets are MtbLigA^G621I (M. tuberculosis, UniProt P9WNV1 1-691, G621I); MtbLigA^G639V (M. tuberculosis, UniProt P9WNV1 1-691, G639V); MtbLigA^G614I (M. tuberculosis, UniProt P9WNV1 1-691, G614I).
Holding throughout (experiment): SPR
A general note: Surface plasmon resonance follows binding to a sensor surface in real time, without labels.

The target in assay [1] is Full-length His-tagged MtbLigA (M. tuberculosis, UniProt P9WNV1 1-691).

B1: GST-tagged MtbXthA (enzyme)
chain: MPDGTIDGGHPQRPASPRLRSPLLRLATWNVNSIRTRLDRVLDWLGRADVDVLAMQETKCPDGQFPALPLFELGYDVAHVGFDQWNGVAIASRVGLDDVRVGFDGQPSWSGKPEVAATTEARALGATCGGIRVWSLYVPNGRALDDPHYTYKLDWLAALRDTAEGWLRDDPAAPIALMGDWNIAPTDDDVWSTEFFAGCTHVSEPERKAFNAIVDAQFTDVVRPFTPGPGVYTYWDYTQLRFPKKQGMRIDFILGSPALAARVMDAQIVREERKGKAPSDHAPVLVDLHAG
One may read the Kd as the concentration at which binding is half-saturated. A high value points to lower affinity. As to B1, the dissociation constant Kd in the assay with MtbLigA^G621I turned out to be 154 nM; with MtbLigA^G639V, 2770 nM; with MtbLigA^G614I, 781 nM.

B2: GST-tagged MtbXthA^ID (interaction-defective triple mutant) (enzyme)
chain: MPDGTIDGGHPQRPASPRLRSPLLRLATWNVNSIRTRLDRVLDWLGRADVDVLAMQETKCPDGQFPALPLFELGYDVAHVGFDQWNGVAIASRVGLDDVRVGFDGQPSWALAPEVAATTEARALGATCGGIRVWSLYVPNGRALDDPHYTYKLDWLAALRDTAEGWLRDDPAAPIALMGDWNIAPTDDDVWSTEFFAGCTHVSEPERKAFNAIVDAQFTDVVRPFTPGPGVYTYWDYTQLRFPKKQGMRIDFILGSPALAARVMDAQIVREERKGKAPSDHAPVLVDLHAG
Take B2: the Kd was 9010 nM in the assay with MtbLigA^G639V and 613 nM in assay [1].
